Laboratory results from the array DNA melting data of Ke et al..

What was measured:
[1] = melting temperature; UV melt of duplexes; settings: strand 2 µM
[2] = melting temperature; melt of duplexes; settings: sodium 0.0675 M; strand 1 µM

| Substance | Tm [2] | other results |
| --- | --- | --- |
| AGCAAGTCGAGCAGGGCCTACGTTT+AAACGTAGGCCCTGCTCGACTTGCT (((((((((((((((((((((((((+))))))))))))))))))))))))) |  | Tm ([1]; sodium 0.07 M): 68.3 °C; Tm ([1]; sodium 0.12 M): 72.6 °C; Tm ([1]; sodium 0.22 M): 76.3 °C; Tm ([1]; sodium 0.62 M): 80 °C; Tm ([1]; sodium 1.02 M): 81.5 °C |
| CGACGTGCTTCATGTGCTG+CAGCACATTAGGCACGTCG ((((((((.(.((((((((+)))))))).).)))))))) | 50 °C |  |
| CGACGTGCTTCATGTGCTG+CAGCACATTATGCACGTCG ((((((((.(.((((((((+)))))))).).)))))))) | 50.1 °C |  |
| CGACGTGCTTGATGTGCTG+CAGCACATAACGCACGTCG ((((((((.(.((((((((+)))))))).).)))))))) | 50.8 °C |  |
| CGACGTGCTTGATGTGCTG+CAGCACATAATGCACGTCG ((((((((.(.((((((((+)))))))).).)))))))) | 52.1 °C |  |
| CGACGTGCTTGATGTGCTG+CAGCACATAGAGCACGTCG (((((((((..((((((((+))))))))..))))))))) | 54.2 °C |  |
| CGACGTGCTTGATGTGCTG+CAGCACATATAGCACGTCG (((((((((..((((((((+))))))))..))))))))) | 54 °C |  |
| CGACGTGCTTGATGTGCTG+CAGCACATCAAGCACGTCG (((((((((((((((((((+))))))))))))))))))) | 64.9 °C |  |
| CGACGTGCTTGATGTGCTG+CAGCACATCATGCACGTCG ((((((((.((((((((((+)))))))))).)))))))) | 59.5 °C |  |
| CGACGTGCTTGATGTGCTG+CAGCACATCCAGCACGTCG (((((((((.(((((((((+))))))))).))))))))) | 57.1 °C |  |
| CGACGTGCTTGATGTGCTG+CAGCACATCCGGCACGTCG ((((((((..(((((((((+)))))))))..)))))))) | 54.6 °C |  |
| CGACGTGCTTGATGTGCTG+CAGCACATCCTGCACGTCG ((((((((..(((((((((+)))))))))..)))))))) | 54.5 °C |  |
| CGACGTGCTTGATGTGCTG+CAGCACATCGAGCACGTCG (((((((((.(((((((((+))))))))).))))))))) | 60.6 °C |  |
| CGACGTGCTTGATGTGCTG+CAGCACATCTAGCACGTCG (((((((((.(((((((((+))))))))).))))))))) | 58.6 °C |  |
| CGACGTGCTTGATGTGCTG+CAGCACATGAGGCACGTCG ((((((((.(.((((((((+)))))))).).)))))))) | 51.6 °C |  |
| CGACGTGCTTGATGTGCTG+CAGCACATGATGCACGTCG ((((((((.(.((((((((+)))))))).).)))))))) | 51.6 °C |  |
| CGACGTGCTTGATGTGCTG+CAGCACATGCAGCACGTCG (((((((((..((((((((+))))))))..))))))))) | 51.8 °C |  |
| CGACGTGCTTGATGTGCTG+CAGCACATGCTGCACGTCG ((((((((...((((((((+))))))))...)))))))) | 48.1 °C |  |
| CGACGTGCTTGATGTGCTG+CAGCACATGGAGCACGTCG (((((((((..((((((((+))))))))..))))))))) | 54 °C |  |
| CGACGTGCTTGATGTGCTG+CAGCACATGGCGCACGTCG ((((((((...((((((((+))))))))...)))))))) | 47.2 °C |  |
| CGACGTGCTTGATGTGCTG+CAGCACATTAAGCACGTCG ((((((((((.((((((((+)))))))).)))))))))) | 57.2 °C |  |
| CGACGTGCTTGATGTGCTG+CAGCACATTACGCACGTCG ((((((((.(.((((((((+)))))))).).)))))))) | 50.1 °C |  |

| Substance | Tm [2] | other results |
| --- | --- | --- |
| CGACGTGCTTGATGTGCTG+CAGCACATTCCGCACGTCG ((((((((...((((((((+))))))))...)))))))) | 48.5 °C |  |
| CGACGTGCTTGATGTGCTG+CAGCACATTCGGCACGTCG ((((((((...((((((((+))))))))...)))))))) | 50.1 °C |  |
| CGACGTGCTTGATGTGCTG+CAGCACATTGCGCACGTCG ((((((((...((((((((+))))))))...)))))))) | 48.1 °C |  |
| CGACGTGCTTGATGTGCTG+CAGCACATTGTGCACGTCG ((((((((...((((((((+))))))))...)))))))) | 47.2 °C |  |
| CGACGTGCTTTATGTGCTG+CAGCACATACCGCACGTCG ((((((((..(((((((((+)))))))))..)))))))) | 48.3 °C |  |
| CGACGTGCTTTATGTGCTG+CAGCACATAGAGCACGTCG (((((((((.(((((((((+))))))))).))))))))) | 55.2 °C |  |
| CGACGTGCTTTATGTGCTG+CAGCACATAGCGCACGTCG ((((((((..(((((((((+)))))))))..)))))))) | 47.9 °C |  |
| CGACGTGCTTTATGTGCTG+CAGCACATAGGGCACGTCG ((((((((..(((((((((+)))))))))..)))))))) | 51.1 °C |  |
| CGACGTGCTTTATGTGCTG+CAGCACATCATGCACGTCG ((((((((.(.((((((((+)))))))).).)))))))) | 49.2 °C |  |
| CGACGTGCTTTATGTGCTG+CAGCACATCCGGCACGTCG ((((((((...((((((((+))))))))...)))))))) | 48.2 °C |  |
| CGACGTGCTTTATGTGCTG+CAGCACATCGGGCACGTCG ((((((((...((((((((+))))))))...)))))))) | 48.3 °C |  |
| CGACGTGCTTTATGTGCTG+CAGCACATCGTGCACGTCG ((((((((...((((((((+))))))))...)))))))) | 42.3 °C |  |
| CGACGTGCTTTATGTGCTG+CAGCACATGAAGCACGTCG ((((((((((.((((((((+)))))))).)))))))))) | 57.3 °C |  |
| CGACGTGCTTTATGTGCTG+CAGCACATGATGCACGTCG ((((((((.(.((((((((+)))))))).).)))))))) | 52.1 °C |  |
| CGACGTGCTTTATGTGCTG+CAGCACATGCAGCACGTCG (((((((((..((((((((+))))))))..))))))))) | 50.9 °C |  |
| CGACGTGCTTTATGTGCTG+CAGCACATGCCGCACGTCG ((((((((...((((((((+))))))))...)))))))) | 46.7 °C |  |
| CGACGTGCTTTATGTGCTG+CAGCACATGGCGCACGTCG ((((((((...((((((((+))))))))...)))))))) | 47.2 °C |  |
| CGACGTGCTTTATGTGCTG+CAGCACATGGTGCACGTCG ((((((((...((((((((+))))))))...)))))))) | 45.6 °C |  |
| CGACGTGCTTTATGTGCTG+CAGCACATTGAGCACGTCG (((((((((..((((((((+))))))))..))))))))) | 52 °C |  |
| CGACGTGCTTTATGTGCTG+CAGCACATTGGGCACGTCG ((((((((...((((((((+))))))))...)))))))) | 49.8 °C |  |
| CGACGTGCTTTATGTGCTG+CAGCACATTTGGCACGTCG ((((((((...((((((((+))))))))...)))))))) | 50.1 °C |  |
